According to paper PMC9321335, “Palmitic Acid-Conjugated Radiopharmaceutical for Integrin αvβ3-Targeted Radionuclide Therapy” (Pharmaceutics, 2022):
Where two headings read alike, the source gives them in different places.

Columns and labels:
[1] = reportedly; cited from earlier work
From the text: Albumin makes up approximately 55–60% of serum proteins, and its biological half-life is reportedly 19 days, which makes it possible to leverage the long circulation half-life of albumin to produce long-acting therapeutics.

MC38 tumor-bearing mice = assay: in vivo; details: mouse
Description: (§1) Mice bearing MC38 xenografts were randomly divided into 10 groups (n = 4). The mice in five groups were administered 0.74 MBq/20 µCi of ^177Lu-Palm-3PRGD2 and sacrificed at 1, 4, 12, 24, and 72 h p.i. The mice on one group was injected with 0.74 MBq/20 µCi of ^177Lu-Palm-3PRGD2 and 500 μg (242 nmol) 3PRGD2 as a blocking agent and sacrificed at 1 h p.i. […] Tumors and major organs were harvested, weighed and measured for radioactivity using a γ-counter. The organ uptake was calculated as the percentage injected activity per gram (%IA/g). The effective absorbed dose in humans estimated from mouse biodistribution data by using a dedicated software (OLINDA 1.0).

[2] = design: species or system KM mice; details: mouse, in vivo, iv
Description: (§2) Female KM mice were randomly divided into three groups (n = 5). […] Blood samples obtained from the canthus vein were collected at different time points post injection (p.i.), weighed, and evaluated using a γ-counter. The results are presented as the percentage injected activity per gram (%IA/g). Nonlinear regression (curve fit) followed by two phase decay was performed using GraphPad Prism version 9.0.0 for Windows, GraphPad Software, San Diego, CA, USA, www.graphpad.com (accessed on 22 May 2022). And then the half-lives values were calculated and determined.

[3] = design: species or system C57BL/6 mice; details: mouse, in vivo
Description: as §2, with “determined. Blood clearance studies were performed in normal KM mice. […] Blood clearance studies were also performed in C57BL/6 mice.” for “determined.”

in vivo = details: C57BL/6, mouse, 0.74 MBq, total radioactivity
Description: as §1

physchem = assay type: physicochemical
Description: Briefly, the radiopharmaceuticals were prepared and purified with Sep-Pak-C18 cartridges and then dissolved in a mixed solution of 5 mL n-octanol and 5 mL PBS. After vortexing for 1 h, the mixture was centrifuged at 10,000 rpm for 10 min. Samples (100 μL, n = 4) from the n-octanol and PBS components were collected and counted using a γ-counter. The […] were calculated as the logarithm of the n-octanol/PBS ratio.

[4] = cited from earlier work
From the text: This may be caused by several factors: first, palmitic acid can reversibly bind to albumin to prolong the blood retention time and reduce the elimination of peptides; second, ^177Lu-palm-3PRGD2 is amphiphilic and may self-assemble to form tiny nanoparticles (possibly nanospheres or nanofibers) with larger molecular sizes, resulting in lo ...

[5] = Tumor-to-tissue ratio, Intestine

Molecule: Albumin
- Biological half-life [1]: 19 days

Molecule: CCCCCCCCCCCCCCCC(=O)N[C@@H](CCC(=O)NCCCC[C@H](NC(=O)CN1CCN(CC(=O)O)CCN(CC(=O)O)CCN(CC(=O)O)CC1)C(=O)O)C(=O)O [^177Lu-Palm, [^177Lu]Lu-DOTA-Palm, metal not drawn]
- Tumor-to-tissue ratio, Brain (MC38 tumor-bearing mice): 14.69
- Half-Life (T1/2α) [2]: 3.33 min
- Half-Life (T1/2β) [2]: 29.82 min

Molecule: N=C(N)NCCC[C@@H]1NC(=O)[C@H](CCCCNC(=O)CCOCCOCCOCCOCCNC(=O)CC[C@H](NC(=O)CCOCCOCCOCCOCCNC(=O)CN2CCN(CC(=O)O)CCN(CC(=O)O)CCN(CC(=O)O)CC2)C(=O)NCCOCCOCCOCCOCCC(=O)NCCCC[C@@H]2NC(=O)[C@@H](Cc3ccccc3)NC(=O)[C@H](CC(=O)O)NC(=O)CNC(=O)[C@H](CCCNC(=N)N)NC2=O)NC(=O)[C@@H](Cc2ccccc2)NC(=O)[C@H](CC(=O)O)NC(=O)CNC1=O [^177Lu-3PRGD2, [^177Lu]Lu-DOTA-3PRGD2, metal not drawn]
- Half-Life (T1/2α) [3]: 1.06 min
- Half-Life (T1/2β) [3]: 14.54 min
- tissue uptake at 4 h (in vivo; Blood uptake): 0.42 ± 0.26 %ID/g
- tissue uptake at 12 h (in vivo; Blood uptake): 0.32 %ID/g
- tissue uptake at 4 h (in vivo; Bone uptake): 1.41 %ID/g
- tissue uptake at 12 h (in vivo; Bone uptake): 1.46 %ID/g
- tissue uptake at 4 h (in vivo; Brain uptake): 0.09 %ID/g
- tissue uptake at 12 h (in vivo; Brain uptake): 0.11 %ID/g
- tissue uptake at 4 h (in vivo; Heart uptake): 0.75 %ID/g
- tissue uptake at 12 h (in vivo; Heart uptake): 0.63 %ID/g
- tissue uptake at 4 h (in vivo; Intestine uptake): 9.85 %ID/g
- tissue uptake at 12 h (in vivo; Intestine uptake): 7.97 %ID/g
- tissue uptake at 12 h (in vivo; Kidney uptake): 4.48 %ID/g
- tissue uptake at 4 h (in vivo; Liver uptake): 2.95 %ID/g
- tissue uptake at 12 h (in vivo; Liver uptake): 1.93 %ID/g
- tissue uptake at 4 h (in vivo; Lung uptake): 1.73 %ID/g
- tissue uptake at 12 h (in vivo; Lung uptake): 1.46 %ID/g
- tissue uptake at 4 h (in vivo; Muscle uptake): 0.52 %ID/g
- tissue uptake at 12 h (in vivo; Muscle uptake): 0.64 %ID/g
- tissue uptake at 4 h (in vivo; Spleen uptake): 2.65 %ID/g
- tissue uptake at 12 h (in vivo; Spleen uptake): 1.89 %ID/g
- tissue uptake at 4 h (in vivo; Stomach uptake): 2.96 %ID/g
- tissue uptake at 12 h (in vivo; Stomach uptake): 2.39 %ID/g
- tissue uptake at 4 h (in vivo; Tumor uptake): 6.22 %ID/g
- tissue uptake at 12 h (in vivo; Tumor uptake): 4.11 %ID/g
- tissue to tissue ratio at 4 h (in vivo; Tumor-to-tissue ratio, Blood): 20.3
- tissue to tissue ratio at 12 h (in vivo; Tumor-to-tissue ratio, Blood): 14.2
- tissue to tissue ratio at 4 h (in vivo; Tumor-to-tissue ratio, Bone): 4.41
- tissue to tissue ratio at 12 h (in vivo; Tumor-to-tissue ratio, Bone): 2.82
- tissue to tissue ratio at 4 h (in vivo; Tumor-to-tissue ratio, Brain): 68.7
- tissue to tissue ratio at 12 h (in vivo; Tumor-to-tissue ratio, Brain): 39.9
- tissue to tissue ratio at 4 h (in vivo; Tumor-to-tissue ratio, Heart): 8.31
- tissue to tissue ratio at 12 h (in vivo; Tumor-to-tissue ratio, Heart): 6.53
- tissue to tissue ratio at 4 h (in vivo; [5]): 0.66
- tissue to tissue ratio at 12 h (in vivo; [5]): 0.52
- tissue to tissue ratio at 4 h (in vivo; Tumor-to-tissue ratio, Liver): 2.11
- tissue to tissue ratio at 12 h (in vivo; Tumor-to-tissue ratio, Liver): 2.13
- tissue to tissue ratio at 4 h (in vivo; Tumor-to-tissue ratio, Lung): 3.6
- tissue to tissue ratio at 12 h (in vivo; Tumor-to-tissue ratio, Lung): 2.84
- tissue to tissue ratio at 4 h (in vivo; Tumor-to-tissue ratio, Muscle): 12
- tissue to tissue ratio at 12 h (in vivo; Tumor-to-tissue ratio, Muscle): 6.6
- tissue to tissue ratio at 4 h (in vivo; Tumor-to-tissue ratio, Spleen): 2.36
- tissue to tissue ratio at 12 h (in vivo; Tumor-to-tissue ratio, Spleen): 2.22
- tissue to tissue ratio at 4 h (in vivo; Tumor-to-tissue ratio, Stomach): 2.1
- tissue to tissue ratio at 12 h (in vivo; Tumor-to-tissue ratio, Stomach): 1.72
- tissue to tissue ratio at 4 h (in vivo; in vivo): 1.27
- tissue to tissue ratio at 12 h (in vivo; in vivo): 0.92
- Half-Life (T1/2α) [2]: 1.94 min
- Half-Life (T1/2β) [2]: 11.81 min
- logD (physchem): -4.05 ± 0.14
- Effective absorbed dose [4]: 1.35 × 10^−2 mSv/MBq
